Common to all, as to test: purified protein, by the assay type
Design in all cases: DTNB thiol release, A412, continuous steady-state Michaelis-Menten kinetics of C-S lyase
Conditions in all cases: pH 7.8; 37.0 °C

Substrate in data set [1]: CCCC(C)(CCO)SC[C@H](N)C(=O)O
Here is the method: (§1) In vitro activity assays were performed using an Epoch2 (BioTek) plate reader. Reactions were measured in 96-well plate. A continuous assay, described previously[3] was used to measure 3M3SH. A 200 μL reaction contained […], variable amounts of substrate and 0.4 mM DTNB in 50 mM KPi and 200 mM NaCl, pH 7.8. […] Each reaction was incubated at 37 °C for 30 min. Release of the thiol 3M3SH was measured by reaction with DTNB to form 2-nitro-5-thiobenzoic acid (TNB) which is measured at A412 nm every minute. Background rate of DTNB decomposition was subtracted in each assay. Michaelis–Menten plots were derived from 6 to 8 substrate concentrations using Prism Version 5.01 (GraphPad) to calculate the Kcat and KM. Enzyme concentrations were assumed to be the concentration of PLP-bound enzyme with two active sites per enzyme. Velocity curves for all in vitro kinetics are shown in the supplementary information (Supplementary Information Figures S10–S12). Next, we cloned and overexpressed genes encoding a representative range of PatB-type enzymes, with two MetC proteins as controls (Fig. 2, denoted by coloured dots) and purified the proteins for biochemical analysis.

Substrate in data set [2]: N[C@@H](CCSC[C@H](N)C(=O)O)C(=O)O
Here is the method: as §1

Substrate in data set [3]: CC(C)(CCO)SC[C@H](N)C(=O)O
Here is the method:
as §1

B1: EcMalY (Escherichia coli K-12) (protein)
chain: MFDFSKVVDRHGTWCTQWDYVADRFGTADLLPFTISDMDFATAPCIIEALNQRLMHGVFGYSRWKNDEFLAAIAHWFSTQHYTAIDSQTVVYGPSVIYMVSELIRQWSETGEGVVIHTPAYDAFYKAIEGNQRTVMPVALEKQADGWFCDMGKLEAVLAKPECKIMLLCSPQNPTGKVWTCDELEIMADLCERHGVRVISDEIHMDMVWGEQPHIPWSNVARGDWALLTSGSKSFNIPALTGAYGIIENSSSRDAYLSALKGRDGLSSPSVLALTAHIAAYQQGAPWLDALRIYLKDNLTYIADKMNAAFPELNWQIPQSTYLAWLDLRPLNIDDNALQKALIEQEKVAIMPGYTYGEEGRGFVRLNAGCPRSKLEKGVAGLINAIRAVR
notes: full length; N-terminal MGGGFA and C-terminal ENLYFQG-His10; expressed in E. coli MC1061
As usually defined, the Km is the substrate concentration at which the rate is half of its maximum. A word on the kcat: it is the maximal rate divided by the concentration of active sites. One may read the kcat/Km as the turnover number divided by the Michaelis constant. B1: in data set [1], the Km worked out at 17490 µM, the kcat came out at 4.4 s⁻¹ and the kcat/Km was determined as 252 M⁻¹ s⁻¹. Moreover, in data set [2], the Km worked out at 2200 µM, the kcat was 7.63 s⁻¹ and the kcat/Km is 3470 M⁻¹ s⁻¹.

B2: CjAecD (Corynebacterium jeikeium K411) (protein)
chain: MNATTQNNNLENTQNTCPQDSAVSVPGLATLRARGTMKWTVYDEDVLPLWVAETDFDTCPAVKQAIQSGVDREYFGYERRNQSVEKALAGFLDRRFGWQIEPTWVRLVPDVVKGVATAIDELTPQGSDVIVPVPSYHPFFDVPSAVKRPKVEVEMTKVKKNGAEEWAFDYAALEAAFASTDNPAGVGAMIVCNPYNPLGRAWRPEELAKLVELAAKYNVRLISDEIHAPVVYAPHKHTPLATLSETAARVTVTVLATSKGWNTAGLHCAQMIFTNPDDRAAMAKVSPLRTGSASTLGQVAAEAAYTDGEAWLDSELEYLEGNLDLLERRLPEVLPGAKFIRPEASFLLWVDLSEVPGLADNPGQKLLEGARVAFNEGTMFGAQGAGHVRINFGTSREILNEALDRIAEFAKEHANN
notes: full length; expressed in E. coli MC1061
In the case of B2, in data set [1], the Km was 740 µM, the kcat came to 1.71 s⁻¹ and the kcat/Km was determined as 2300 M⁻¹ s⁻¹. In addition, in data set [2], the Km came out at 210 µM, the kcat turned out to be 1.18 s⁻¹ and the kcat/Km was 5520 M⁻¹ s⁻¹. For the same protein, in data set [3], the Km came to 800 µM, the kcat amounted to 2.65 s⁻¹ and the catalytic efficiency (kcat/Km) amounted to 3160 M⁻¹ s⁻¹.

B3: BsPatB (Bacillus subtilis subsp. subtilis str. 168) (protein)
chain: MNFDKREERLGTQSVKWDKTGELFGVTDALPMWVADMDFRAPEAITEALKERLDHGIFGYTTPDQKTKDAVCGWMQNRHGWKVNPESITFSPGVVTALSMAVQAFTEPGDQVVVQPPVYTPFYHMVEKNGRHILHNPLLEKDGAYAIDFEDLETKLSDPSVTLFILCNPHNPSGRSWSREDLLKLGELCLEHGVTVVSDEIHSDLMLYGHKHTPFASLSDDFADISVTCAAPSKTFNIAGLQASAIIIPDRLKRAKFSASLQRNGLGGLNAFAVTAIEAAYSKGGPWLDELITYIEKNMNEAEAFLSTELPKVKMMKPDASYLIWLDFSAYGLSDAELQQRMLKKGKVILEPGTKYGPGGEGFMRLNAGCSLATLQDGLRRIKAALS
notes: full length; N-terminal MGGGFA and C-terminal ENLYFQG-His10; expressed in E. coli MC1061; homodimer, PLP on Lys234
With B3, in data set [1], the Km stood at 380 µM, the kcat was determined as 1.92 s⁻¹ and the kcat/Km was determined as 5110 M⁻¹ s⁻¹. In addition, in data set [2], the Km amounted to 660 µM, the turnover number (kcat) was found to be 0.55 s⁻¹ and the catalytic efficiency (kcat/Km) came to 839 M⁻¹ s⁻¹. Further, in data set [3], the Km worked out at 400 µM, the kcat came to 0.945 s⁻¹ and the kcat/Km was 2360 M⁻¹ s⁻¹.

These data come from PMC7385124, “The molecular basis of thioalcohol production in human body odour” (Scientific Reports, 2020).
